Results as given in patent US20020058276A1 (GOVERNING COUNCIL OF THE UNIVERSITY OF TORONTO, published 2002).

B1: PAMPΔ312-340 (other, not shown: small tags and cut ends)
chain: NSVERKIYIPLNKTAPCVRLLNATHQIGCQSSISGDTGVIHVVEKEEDLQWVLTDGPNPPYMVLLESKHFTRDLMEKLKGRTSRIAGLAVSLTKPSPASGFSPSVQCPNDGFGVYSNSYGPEFAHCREIQWNSLGNGLAYEDFSFPIFLLEDENETKVIKQCYQDHNLSQNGSAPTFPLCAMQLFSHMHAVISTATCMRRSSIQSTFSINPEIVCDPLSDYNVWSMLKPINTTGTLKPDDRVVVAATRLDSRSFFWNVAPGAESAVASFVTQLAAAEASRMVYDMEKGKFPVQLENVDSFVELGQVALRTSLELWMHTDPVSQKNESVRNQVEDLLATLEKSGAGVPAVILRRPNQSQPLPPSSLQRFLRARNISGVVLADHSGAFHNKYYQSIYDTAENINVSYPEWLSPEEDLNFVTDTAKALADVATVLGRALYELAGGTNFSDTVQADPQTVTRLLYGFLIKANNSWFQSILRQDLRSYLGDGPLQHYIAVSSPTNTTYVVQYALANLTGTVVNLTREQCQDPSKVPSENKDLYEYSWVQGPLHSNETDRLPRCVRSTARLARALSPAFELSQWSSTEYSTWTESRWKDIRARIFLIASKELELITLTVGFGILIFSLIVTYCINAKADVLFIAPREPGAVSY
B2: PAMPΔ312-369 (other, not shown: small tags and cut ends)
chain: NSVERKIYIPLNKTAPCVRLLNATHQIGCQSSISGDTGVIHVVEKEEDLQWVLTDGPNPPYMVLLESKHFTRDLMEKLKGRTSRIAGLAVSLTKPSPASGFSPSVQCPNDGFGVYSNSYGPEFAHCREIQWNSLGNGLAYEDFSFPIFLLEDENETKVIKQCYQDHNLSQNGSAPTFPLCAMQLFSHMHAVISTATCMRRSSIQSTFSINPEIVCDPLSDYNVWSMLKPINTTGTLKPDDRVVVAATRLDSRSFFWNVAPGAESAVASFVTQLAAAEALRTSLELWMHTDPVSQKNESVRNQVEDLLATLEKSGAGVPAVILRRPNQSQPLPPSSLQRFLRARNISGVVLADHSGAFHNKYYQSIYDTAENINVSYPEWLSPEEDLNFVTDTAKALADVATVLGRALYELAGGTNFSDTVQADPQTVTRLLYGFLIKANNSWFQSILRQDLRSYLGDGPLQHYIAVSSPTNTTYVVQYALANLTGTVVNLTREQCQDPSKVPSENKDLYEYSWVQGPLHSNETDRLPRCVRSTARLARALSPAFELSQWSSTEYSTWTESRWKDIRARIFLIASKELELITLTVGFGILIFSLIVTYCINAKADVLFIAPREPGAVSY

Molecular target: wild type human presenilin 1 (PS1) (human, UniProt P49768 1-467)
Assay: cell-based or functional assay

Aβ42/Aβ40 Ratio | Binder
0.59 normalized to mock transfection (1.0) | B1
0.09 normalized to mock transfection (1.0) | B2
